In patent US8008542B2, “Compositions, cells, and plants that include BKI1, a negative regulator of BRI1-mediated BR signaling” (The Salk Institute for Biological Studies, priority 2007, dated 2011):

Assays:
[1] = biological target: T1, BAK1 (Arabidopsis thaliana, UniProt Q94F62); test: Yeast two-hybrid interaction with BAK1-KD; type: binding
T1 construct: kinase domains of other receptor-like kinases tested, including BAK1 and NIK1; expressed in transfected cells; host or cells: yeast strain MaV203
T1 sequence (Q94F62 289-576 limits assumed): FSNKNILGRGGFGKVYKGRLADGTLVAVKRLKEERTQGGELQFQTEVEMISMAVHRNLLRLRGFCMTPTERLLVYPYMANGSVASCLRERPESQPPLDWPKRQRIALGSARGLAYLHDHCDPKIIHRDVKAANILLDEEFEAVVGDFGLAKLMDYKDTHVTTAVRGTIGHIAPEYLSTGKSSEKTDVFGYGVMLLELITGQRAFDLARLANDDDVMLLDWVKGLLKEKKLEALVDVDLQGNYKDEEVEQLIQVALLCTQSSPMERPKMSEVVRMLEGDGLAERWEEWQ
Procedure: (§1) A ProQuest Two-Hybrid system with Gateway technology (Invitrogen) was used. […] The full-length (BKI1-FL), and various truncated proteins, 1-252 (BKI1-ΔCT1), 1-299 (BKI1-ΔCT2), and 253-337 (BKI1-CT) of BKI1 were cloned into the pEXPAD502 vector. The kinase domain of NIK1 (NIK1-KD) (Fontes et al. (2004) Genes Dev. 18:2545), BAK1 (BAK1-KD), CLV1 (CLV1-KD), BRL1 (BRL1-KD), BRL3 (BRL3-KD), full length TTL, and full-length BIN2 were cloned into the pDBLeu vector. Interactions were tested on SD medium minus Leu, Trp, and His, and containing 25 mM 3-Amino-1,2,4-Triazole (3AT), using the yeast strain MaV203 according to the manufacturer's manual.

[2] = biological target: T2, intracellular domain of BRI1 (BRI1-KD) (Arabidopsis thaliana, UniProt O22476); test: Yeast two-hybrid interaction with BRI1-KD; type: binding
T2 construct: expressed in transfected cells; host or cells: yeast strain MaV203
T2 sequence (O22476 828-1196): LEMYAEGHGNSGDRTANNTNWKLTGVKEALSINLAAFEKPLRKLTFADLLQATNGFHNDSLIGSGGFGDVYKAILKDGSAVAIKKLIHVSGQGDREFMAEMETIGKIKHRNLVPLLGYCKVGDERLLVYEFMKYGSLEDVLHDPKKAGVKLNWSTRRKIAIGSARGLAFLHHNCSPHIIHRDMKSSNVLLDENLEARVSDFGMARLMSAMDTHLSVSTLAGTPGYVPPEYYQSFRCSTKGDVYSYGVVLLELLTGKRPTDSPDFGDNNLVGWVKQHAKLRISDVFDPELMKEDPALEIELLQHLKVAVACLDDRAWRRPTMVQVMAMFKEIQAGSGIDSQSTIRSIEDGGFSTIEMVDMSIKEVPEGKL
Procedure: as §1

[3] = test system: Arabidopsis seedlings; test: Hypocotyl length and growth phenotype of transgenic lines; type: in vivo; conditions: over-expression from 35S promoter in Col-0
Procedure: BKI1's function in brassinosteroid signaling was explored in several ways. First, we made transgenic plants harboring a β-glucuronidase (GUS) reporter gene expressed from the promoter of BKI1 to observe the expression pattern of BKI1 (FIG. 1G-J) during development. […] To explore the function of BKI1 in BRI1 signaling, we created RNAi (RNA interference) lines to knockdown BKI1 RNA levels.
Seedlings were grown in short day photoperiods for seven days. At least ten short-day grown seedlings were measured. In FIGS. 2A-B the pBKI1::GUS line was used as a control (control). RNAi-2 and RNAi-7 were two independent RNAi knockdown lines for BKI1. In FIG. 2 C-E, phenotype of plants overexpressing BKI1-FLAG, with Col-0 (left) and a BKI1-FLAG line (right) are shown. 2C. Short-day grown seedlings. 2D. Long-day grown seedlings. 2E. Long-day grown adult plants. In FIG. 2F, leaf morphology of seedlings grown in short days. Col-0 (right) and a BKI1-FLAG line (left) are shown. In FIG. 2G, over-expression of BKI1-YFP leads to a reduced response (hypocotyl length) to BL. At least twenty short-day grown seedlings were measured. In FIG. 2H, over-expression of BKI1-YFP leads to an enhanced response to BRZ220. At least twenty dark-grown seedlings were measured. In FIG. 2I, over-expression of BKI1-YFP results in reduced accumulation of dephosphorylated BES1. […]

[4] = biological target: T3, NIK1 (Arabidopsis thaliana, UniProt Q9LFS4); test: Yeast two-hybrid interaction with NIK1-KD; type: binding
T3 construct: The kinase domain of NIK1 (NIK1-KD) (Fontes et al. (2004) Genes Dev. 18:2545); expressed in transfected cells; host or cells: yeast strain MaV203
T3 sequence (Q9LFS4 312-593 limits assumed): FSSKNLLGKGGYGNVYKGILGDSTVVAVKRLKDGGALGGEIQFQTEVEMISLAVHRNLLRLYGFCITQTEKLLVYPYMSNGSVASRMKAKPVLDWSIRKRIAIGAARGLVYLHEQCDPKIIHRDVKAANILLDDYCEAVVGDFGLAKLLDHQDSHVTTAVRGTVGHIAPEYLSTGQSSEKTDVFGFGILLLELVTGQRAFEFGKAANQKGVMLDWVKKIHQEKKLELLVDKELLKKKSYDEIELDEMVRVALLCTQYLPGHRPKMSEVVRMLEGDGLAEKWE
Procedure: as §1

B1: BKI1: BRI1-interacting protein of 337 amino acids, negative regulator of brassinosteroid signaling (SEQ ID NO:1) (protein, listed as Arabidopsis thaliana)
chain: METNLQQVKNSSQTFSEKQNPKQEASPSPISSTCSSPSHDFSFTISLQPLSSSSKHISPTLRSPSKTTSSYQQTDPFAVDLSPADEIFFHGHLLPLHLLSHLPVSPRTSTGSYNDGFTLPVKDILPDQPTNNNNNTENAITNISTEAKDDNTEDKAEGEIRVKTKPIKSFSLFGLSKWRKGFESNEREQEQQQQKIKKPMSLDLSHAVKKYIRMLFQKRGNGTQFWNRRQTSSYSFSSSLMGPNGNSKTMINGSYNKRDLIRGRRGELFSAPASMRTSPTNSGHLRVSTAGLSSSSGSTSSSSSDSTMEELQAAIQAAIAHCKNSSAVDRDDKVKDS
[1]
  interaction with kinase domain of BAK1 in yeast: not
[2]
  interaction with kinase domain of BRI1 in yeast: associated specifically
[3]
  plant phenotype on over-expression: dwarf plants
[4]
  interaction with kinase domain of NIK1 in yeast: not
